Several values for one entry are separate records, joined by “and”; a condition that tells them apart may be missing. Identical values can stand only once. Square brackets hold non-standard residues; d marks the D form. Ends that are not written are not given here. dCit = NC(=O)NCCC[C@@H](N)C(=O)O; dNle = CCCC[C@@H](N)C(=O)O
B1: wqlkvqw (PEPTIDE ID NO: 319) (peptide)
peptide: [dW][dQ][dL][dK][dV][dQ][dW]
B2: lkizihy (PEPTIDE ID NO: 320) (peptide)
peptide: [dL][dK][dI][dCit][dI][dH][dY]
B3: frvkiqhw (PEPTIDE ID NO: 120) (peptide)
peptide: [dF][dR][dV][dK][dI][dQ][dH][dW]
B4: kwrlkvrw (PEPTIDE ID NO: 207) (peptide)
peptide: [dK][dW][dR][dL][dK][dV][dR][dW]
B5: wwlklrww (PEPTIDE ID NO: 81) (peptide)
peptide: [dW][dW][dL][dK][dL][dR][dW][dW]
B6: lkiuihy (PEPTIDE ID NO: 321) (peptide)
peptide: [dL][dK][dI][dNle][dI][dH][dY]
B7: frikirw (PEPTIDE ID NO: 61) (peptide)
peptide: [dF][dR][dI][dK][dI][dR][dW]
B8: wklklrww (PEPTIDE ID NO: 13) (peptide)
peptide: [dW][dK][dL][dK][dL][dR][dW][dW]
B9: welrihw (PEPTIDE ID NO: 322) (peptide)
peptide: [dW][dE][dL][dR][dI][dH][dW]
B10: feirihyh (PEPTIDE ID NO: 442) (peptide)
peptide: [dF][dE][dI][dR][dI][dH][dY][dH]
B11: wrlkvra (PEPTIDE ID NO: 323) (peptide)
peptide: [dW][dR][dL][dK][dV][dR][dA]
B12: lkirilyh (PEPTIDE ID NO: 208) (peptide)
peptide: [dL][dK][dI][dR][dI][dL][dY][dH]
B13: lkiriey (PEPTIDE ID NO: 324) (peptide)
peptide: [dL][dK][dI][dR][dI][dE][dY]
B14: wrlaihw (PEPTIDE ID NO: 325) (peptide)
peptide: [dW][dR][dL][dA][dI][dH][dW]
B15: wklwlrww (PEPTIDE ID NO: 12) (peptide)
peptide: [dW][dK][dL][dW][dL][dR][dW][dW]
B16: hwrwrwr (PEPTIDE ID NO: 326) (peptide)
peptide: [dH][dW][dR][dW][dR][dW][dR]
B17: rlrihwf (PEPTIDE ID NO: 446) (peptide)
peptide: [dR][dL][dR][dI][dH][dW][dF]
B18: gwrlkvrw (PEPTIDE ID NO: 209) (peptide)
peptide: G[dW][dR][dL][dK][dV][dR][dW]
modifications: also: all residues D-form, Gly1 is achiral
B19: lrlkvrwl (PEPTIDE ID NO: 210) (peptide)
peptide: [dL][dR][dL][dK][dV][dR][dW][dL]
B20: lkirfhy (PEPTIDE ID NO: 211) (peptide)
peptide: [dL][dK][dI][dR][dF][dH][dY]
B21: lkiwikyh (PEPTIDE ID NO: 212) (peptide)
peptide: [dL][dK][dI][dW][dI][dK][dY][dH]
B22: hrlkvrwh (PEPTIDE ID NO: 213) (peptide)
peptide: [dH][dR][dL][dK][dV][dR][dW][dH]
B23: lkirifyh (PEPTIDE ID NO: 214) (peptide)
peptide: [dL][dK][dI][dR][dI][dF][dY][dH]
B24: wrlrihw (PEPTIDE ID NO: 101) (peptide)
peptide: [dW][dR][dL][dR][dI][dH][dW]
B25: wrfkfrw (PEPTIDE ID NO: 215) (peptide)
peptide: [dW][dR][dF][dK][dF][dR][dW]
B26: fklklrwf (PEPTIDE ID NO: 57) (peptide)
peptide: [dF][dK][dL][dK][dL][dR][dW][dF]
B27: lkfrihy (PEPTIDE ID NO: 216) (peptide)
peptide: [dL][dK][dF][dR][dI][dH][dY]
B28: rwrlkvrw (PEPTIDE ID NO: 217) (peptide)
peptide: [dR][dW][dR][dL][dK][dV][dR][dW]
B29: wrlkvrwf (PEPTIDE ID NO: 218) (peptide)
peptide: [dW][dR][dL][dK][dV][dR][dW][dF]
B30: lkirimy (PEPTIDE ID NO: 219) (peptide)
peptide: [dL][dK][dI][dR][dI][dM][dY]
B31: wrrkvrww (PEPTIDE ID NO: 220) (peptide)
peptide: [dW][dR][dR][dK][dV][dR][dW][dW]
B32: lrlkvrww (PEPTIDE ID NO: 221) (peptide)
peptide: [dL][dR][dL][dK][dV][dR][dW][dW]
B33: wrlkvrwh (PEPTIDE ID NO: 222) (peptide)
peptide: [dW][dR][dL][dK][dV][dR][dW][dH]
B34: lkilihyh (PEPTIDE ID NO: 223) (peptide)
peptide: [dL][dK][dI][dL][dI][dH][dY][dH]
B35: rlkvrwww (PEPTIDE ID NO: 224) (peptide)
peptide: [dR][dL][dK][dV][dR][dW][dW][dW]
B36: rrlkvrww (PEPTIDE ID NO: 225) (peptide)
peptide: [dR][dR][dL][dK][dV][dR][dW][dW]
B37: wrfkvrw (PEPTIDE ID NO: 226) (peptide)
peptide: [dW][dR][dF][dK][dV][dR][dW]
B38: rkirihyh (PEPTIDE ID NO: 227) (peptide)
peptide: [dR][dK][dI][dR][dI][dH][dY][dH]
B39: lkirirfh (PEPTIDE ID NO: 414) (peptide)
peptide: [dL][dK][dI][dR][dI][dR][dF][dH]
B40: ewrlkvrw (PEPTIDE ID NO: 229) (peptide)
peptide: [dE][dW][dR][dL][dK][dV][dR][dW]
B41: wrlkvrwr (PEPTIDE ID NO: 230) (peptide)
peptide: [dW][dR][dL][dK][dV][dR][dW][dR]
B42: rlkirihy (PEPTIDE ID NO: 451) (peptide)
peptide: [dR][dL][dK][dI][dR][dI][dH][dY]
B43: frlkvrww (PEPTIDE ID NO: 231) (peptide)
peptide: [dF][dR][dL][dK][dV][dR][dW][dW]
B44: fkirihyf (PEPTIDE ID NO: 232) (peptide)
peptide: [dF][dK][dI][dR][dI][dH][dY][dF]
B45: klklrww (PEPTIDE ID NO: 448) (peptide)
peptide: [dK][dL][dK][dL][dR][dW][dW]
B46: lqfdlqyf (PEPTIDE ID NO: 142) (peptide)
peptide: [dL][dQ][dF][dD][dL][dQ][dY][dF]
B47: lkikihy (PEPTIDE ID NO: 233) (peptide)
peptide: [dL][dK][dI][dK][dI][dH][dY]
B48: wwrlkvrw (PEPTIDE ID NO: 234) (peptide)
peptide: [dW][dW][dR][dL][dK][dV][dR][dW]
B49: wwlrihw (PEPTIDE ID NO: 425) (peptide)
peptide: [dW][dW][dL][dR][dI][dH][dW]
B50: wklklwww (PEPTIDE ID NO: 14) (peptide)
peptide: [dW][dK][dL][dK][dL][dW][dW][dW]
B51: tlkirihy (PEPTIDE ID NO: 235) (peptide)
peptide: [dT][dL][dK][dI][dR][dI][dH][dY]
B52: wrlrimw (PEPTIDE ID NO: 452) (peptide)
peptide: [dW][dR][dL][dR][dI][dM][dW]
B53: glkirihy (PEPTIDE ID NO: 236) (peptide)
peptide: G[dL][dK][dI][dR][dI][dH][dY]
B54: lrikirfh (PEPTIDE ID NO: 421) (peptide)
peptide: [dL][dR][dI][dK][dI][dR][dF][dH]
B55: lrirlhyh (PEPTIDE ID NO: 420) (peptide)
peptide: [dL][dR][dI][dR][dL][dH][dY][dH]
B56: lkiwiyyh (PEPTIDE ID NO: 237) (peptide)
peptide: [dL][dK][dI][dW][dI][dY][dY][dH]
B57: wrlrvrww (PEPTIDE ID NO: 238) (peptide)
peptide: [dW][dR][dL][dR][dV][dR][dW][dW]
B58: lririhyh (PEPTIDE ID NO: 239) (peptide)
peptide: [dL][dR][dI][dR][dI][dH][dY][dH]
B59: lkirihlh (PEPTIDE ID NO: 240) (peptide)
peptide: [dL][dK][dI][dR][dI][dH][dL][dH]
B60: lklhlhfh (PEPTIDE ID NO: 434) (peptide)
peptide: [dL][dK][dL][dH][dL][dH][dF][dH]

Biological target: Tau40 P301L protein (human)
Experiment: cell-based or functional assay

Binder | IC50, Tau40 assay (ThT)
B1 | 2470 nM
B2 | 2470 nM
B3 | 2490 nM
B4 | 780 nM
B5 | 2520 nM
B6 | 2540 nM
B7 | 2560 nM and 2570 nM
B8 | 2560 nM
B9 | 2580 nM
B10 | 2590 nM
B11 | 2610 nM
B12 | 790 nM
B13 | 2630 nM
B14 | 2650 nM
B15 | 2670 nM
B16 | 2690 nM
B17 | 2690 nM
B18 | 790 nM
B19 | 810 nM
B20 | 810 nM

Binder | IC50, Tau40 assay (ThT)
B21 | 810 nM
B22 | 820 nM
B23 | 820 nM
B24 | 310 nM and 320 nM
B25 | 820 nM
B26 | 830 nM
B27 | 830 nM
B28 | 830 nM
B29 | 840 nM
B30 | 840 nM
B31 | 850 nM
B32 | 850 nM
B33 | 860 nM
B34 | 860 nM
B35 | 870 nM
B36 | 880 nM
B37 | 880 nM
B38 | 890 nM
B39 | 900 nM
B40 | 900 nM

Binder | IC50, Tau40 assay (ThT)
B41 | 910 nM
B42 | 510 nM
B43 | 910 nM
B44 | 910 nM
B45 | 920 nM
B46 | 930 nM and 980 nM
B47 | 930 nM
B48 | 930 nM
B49 | 940 nM
B50 | 940 nM
B51 | 940 nM
B52 | 540 nM
B53 | 960 nM
B54 | 970 nM
B55 | 970 nM
B56 | 970 nM
B57 | 1000 nM
B58 | 1000 nM
B59 | 1000 nM
B60 | 1010 nM

Source: patent publication US20200216495A1 (ADRX, published 2020)
